{"source": "patent US8022177B2", "about": "“Peptides and calcium regulation in mammalian cells” (The Board of Trustees of the University of Illinois, priority 2005, dated 2011)", "biological_target": "T1, Cav3.1 (Homo sapiens, UniProt O43497)", "T1 construct": "expressed in transfected cells; host or cells: HEK-293, stably transfected", "T1 sequence (O43497 whole entry)": "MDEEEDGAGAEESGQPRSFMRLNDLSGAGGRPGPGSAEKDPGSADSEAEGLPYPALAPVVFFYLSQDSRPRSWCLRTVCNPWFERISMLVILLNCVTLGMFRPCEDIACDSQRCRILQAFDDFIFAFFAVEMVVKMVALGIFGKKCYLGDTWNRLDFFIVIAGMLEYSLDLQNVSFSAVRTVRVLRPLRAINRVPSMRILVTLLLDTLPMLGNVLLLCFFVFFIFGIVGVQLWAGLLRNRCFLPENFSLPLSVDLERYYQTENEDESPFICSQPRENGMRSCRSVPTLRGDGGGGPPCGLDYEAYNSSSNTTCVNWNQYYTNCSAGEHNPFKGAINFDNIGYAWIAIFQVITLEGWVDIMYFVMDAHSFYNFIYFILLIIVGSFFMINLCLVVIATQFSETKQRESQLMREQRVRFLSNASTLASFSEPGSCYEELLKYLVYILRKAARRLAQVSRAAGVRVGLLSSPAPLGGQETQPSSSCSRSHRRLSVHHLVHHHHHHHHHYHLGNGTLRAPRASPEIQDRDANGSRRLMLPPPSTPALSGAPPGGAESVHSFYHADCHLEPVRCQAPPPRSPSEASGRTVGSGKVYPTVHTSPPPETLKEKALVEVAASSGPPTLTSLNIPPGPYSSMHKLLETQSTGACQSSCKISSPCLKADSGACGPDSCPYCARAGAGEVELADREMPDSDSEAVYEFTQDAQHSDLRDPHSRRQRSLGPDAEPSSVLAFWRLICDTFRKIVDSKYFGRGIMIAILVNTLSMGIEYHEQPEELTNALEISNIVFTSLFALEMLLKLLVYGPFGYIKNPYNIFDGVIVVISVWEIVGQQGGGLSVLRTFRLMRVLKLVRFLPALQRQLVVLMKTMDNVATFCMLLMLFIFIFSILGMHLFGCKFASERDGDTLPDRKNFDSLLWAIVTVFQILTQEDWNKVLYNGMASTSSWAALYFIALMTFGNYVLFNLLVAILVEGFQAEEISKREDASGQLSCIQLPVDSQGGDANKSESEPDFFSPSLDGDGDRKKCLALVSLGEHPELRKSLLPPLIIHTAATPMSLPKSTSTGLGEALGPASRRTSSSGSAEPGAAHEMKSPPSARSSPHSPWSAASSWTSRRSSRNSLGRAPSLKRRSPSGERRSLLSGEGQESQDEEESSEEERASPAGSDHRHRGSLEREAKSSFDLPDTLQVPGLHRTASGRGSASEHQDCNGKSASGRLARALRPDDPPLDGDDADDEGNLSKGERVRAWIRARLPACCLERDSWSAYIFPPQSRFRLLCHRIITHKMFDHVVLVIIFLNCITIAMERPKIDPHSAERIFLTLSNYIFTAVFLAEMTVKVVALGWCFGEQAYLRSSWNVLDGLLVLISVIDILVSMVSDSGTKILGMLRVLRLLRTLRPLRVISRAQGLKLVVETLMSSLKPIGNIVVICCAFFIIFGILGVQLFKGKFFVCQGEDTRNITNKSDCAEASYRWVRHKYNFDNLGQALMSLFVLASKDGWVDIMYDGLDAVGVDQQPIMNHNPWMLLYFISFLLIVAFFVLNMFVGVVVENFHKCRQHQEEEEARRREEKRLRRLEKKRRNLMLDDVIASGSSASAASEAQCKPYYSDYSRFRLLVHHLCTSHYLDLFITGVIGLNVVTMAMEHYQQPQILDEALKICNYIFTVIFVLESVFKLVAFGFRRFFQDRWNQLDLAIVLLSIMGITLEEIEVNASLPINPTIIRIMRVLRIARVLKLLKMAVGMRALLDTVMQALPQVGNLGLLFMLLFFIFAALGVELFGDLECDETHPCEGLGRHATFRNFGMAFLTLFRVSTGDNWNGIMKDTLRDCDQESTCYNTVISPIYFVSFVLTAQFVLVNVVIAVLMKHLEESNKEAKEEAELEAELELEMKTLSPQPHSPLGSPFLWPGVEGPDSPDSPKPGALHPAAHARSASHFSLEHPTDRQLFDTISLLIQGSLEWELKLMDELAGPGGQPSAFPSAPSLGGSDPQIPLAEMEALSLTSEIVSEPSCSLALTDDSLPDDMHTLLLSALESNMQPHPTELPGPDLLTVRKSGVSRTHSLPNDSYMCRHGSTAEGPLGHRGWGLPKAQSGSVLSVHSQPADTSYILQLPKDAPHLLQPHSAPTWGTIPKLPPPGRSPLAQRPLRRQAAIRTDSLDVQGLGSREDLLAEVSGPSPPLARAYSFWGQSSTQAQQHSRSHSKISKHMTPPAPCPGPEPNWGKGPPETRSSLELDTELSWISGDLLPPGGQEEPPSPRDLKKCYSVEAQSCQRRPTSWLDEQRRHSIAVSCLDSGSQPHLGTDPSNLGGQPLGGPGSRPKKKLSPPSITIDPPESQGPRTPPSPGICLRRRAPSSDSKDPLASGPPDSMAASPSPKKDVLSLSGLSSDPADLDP", "test": "Whole-cell patch clamp of Cav3.1 dependent LVA calcium current in HEK-293/Cav3.1 cells transiently transfected with γ subunits (Example 1)", "assay_type": "cell-based", "conditions": "for Effect on current kinetics or voltage dependency: HEK-293/Cav3.1; for Peak current density, % of control value: HEK-293/Cav3.1, normalized to adCGI vector control, mean±S.E.M.; for Activation V 0.5 / Activation k / Deactivation tau @ −100 mV, Fast / Inactivation Tau @ −20 mV / Inactivation V 0.5 / Inactivation k / Time to peak @ −20 mV / V peak: Table 2", "experimental": "2.3. Transfection. Untransfected HEK-293 cells, HEK-293 cell lines stably transfected with Cav3.1, and HL-1 cells were transiently transfected with vectors containing γ subunit, GFP, and modified CFP cDNAs using Lipofectamine 2000 reagent (InVitrogen) as per the manufacturer's recommendations. HEK-293 cells were grown to 70-80% confluence before transfection. HL-1 cells were grown to 50-75% confluence before transfection.\n2.4. Electrophysiology. Whole-cell calcium currents were recorded using an Axopatch-1 D patch clamp system and Clampex 8.0 software. Pipettes were fabricated from borosilicate glass and had typical resistances of 2-4 MΩ. The pipette solution contained (in mM): 130 NaCl, 10 EGTA, 2 MgCl2, 1 CaCl2, 10 HEPES, 3 Tris-ATP, and either 0.3 Li2GTP or 0.3 Tris-GTP, adjusted to pH 7.4 with NaOH and 280 mOsm with sucrose. The bath solution contained (in mM): 137 NaCl (for HEK-293 experiments) or 120 TEACl (for HL-1 experiments), 1 KCl, 1 MgCl2, 0.33 NaH2PO4, 2 CaCl2 (for HEK-293 experiments) or 5 CaCl2 (for HL-1 experiments), 10 glucose (for HL-1 experiments only), 10 HEPES, and 30 μM TTX (for HEK-293 experiments only), adjusted to pH 7.4 with NaOH (for HEK-293 experiments) or TEAOH (for HL-1 experiments) and 280 mOsm with sucrose. NaCl was used as the major salt in the pipette solution order to eliminate any outward K+ currents.\nRecordings from HEK-293 cells were made 48-96 h posttransfection, at which time expression, as measured by GFP fluorescence, peaked. HL-1 cells were used for recording 24-36 h post-transfection. Current densities in HEK-293/Cav3.1 cell experiments were normalized to control for variation in current expression in the different frozen stocks of stable cell lines used. […] HL-1 experiments were performed using a single stock of cells. All HEK-293 data are from current records in which pipette and whole-cell capacitance were about 100% compensated and series resistance was compensated to >80%. Whole-cell capacitance and series resistance were not compensated for HL-1 recordings as currents were typically <100 pA. Series resistance values were typically <10 MX, and no records were used in which the voltage error (as defined by Ver=Imax×Ra) was greater than 5 mV. The holding potential of all protocols used for HEK-293 cells was −100 mV except for steady-state inactivation protocols where the holding potential was −120 mV. The holding potential for protocols used for HL-1 cells was −90 mV. Current-voltage relationships for all HEK-293 and HL-1 cells were measured using 50 ms test depolarizations. Peak current amplitudes for activation curves were determined by fitting tail currents, elicited by stepping membrane voltage from varying test potentials to −60 mV, with the Boltzman equation. Test potential steps for activation protocols were of varied durations, corresponding to the time to peak of the elicited current. Inactivation curves were determined by fitting peak amplitudes of currents, observed in a test pulse to −20 mV, following 500 ms steps to varying potentials, with the Boltzman equation. Time to peak was determined using the current-voltage protocol described above. Inactivation time constants were determined by fitting the decay phase of currents to an exponential equation and deactivation time constants were determined by fitting the decay phase of tail currents to an exponential equation. […] Currents were recorded at 40 kHz and on-line filtered at either 5 or 10 kHz. In some cases currents were off-line filtered at 1 kHz to further reduce noise. Current/voltage relationships and tail currents were recorded from HEK cells using an on-line P/−4 subtraction procedure. Calcium currents recorded from HL-1 cells were off-line leak subtracted. The average membrane capacitance of untransfected HEK-293 cells in pilot experiments was 12.5±1.4 pF (n=8). […]"}
{"molecule": "γ4: rat calcium channel γ4 subunit (AF361341), SEQ ID NO:47 (protein, listed as Rattus norvegicus) MVRCDRGLQMLLTTAGAFAAFSLMAIAIGTDYWLYSSAHICNGTNLTMDDGPPPRRARGDLTHSGLWRVCCIEGIYKGHCFRINHFPEDNDYDHDSSEYLLRIVRASSVFPILSTILLLLGGLCIGAGRIYSRKNNIVLSAGILFVAAGLSNIIGIIVYISSNTGDPSDKRDEDKKNHYNYGWSFYFGALSFIVAETVGVLAVNIYIEKNKELRFKTKREFLKASSSSPYSRMPSYRYRRRRSRSSSRSTEASPSRDASPVGLKITGAIPMGELSMYTLSREPLKVTTAASYSPDQDAGFLQMHDFFQQDLKEGFHVSMLNRRTTPV", "values": [{"measurement": "Effect on current kinetics or voltage dependency", "value": "did not alter current kinetics or voltage dependency"}, {"measurement": "Peak current density, % of control value", "value": "93%±7%"}, {"measurement": "Effect on Cav3.1 current", "setting": "HEK-293 cells", "value": "no significant effect"}, {"measurement": "Activation V 0.5", "value": "−37.3 ± 0.9 (n = 8) mV"}, {"measurement": "Activation k", "value": "11.8 ± 0.5 (n = 8)"}, {"measurement": "Deactivation tau @ −100 mV, Fast", "value": "1.84 ± 0.28 (n = 8) ms"}, {"measurement": "Inactivation Tau @ −20 mV", "value": "15.8 ± 0.7 (n = 7) ms"}, {"measurement": "Inactivation V 0.5", "value": "−79.2 ± 1.5 (n = 7) mV"}, {"measurement": "Inactivation k", "value": "6.1 ± 0.2 (n = 7)"}, {"measurement": "Time to peak @ −20 mV", "value": "5.2 ± 0.5 (n = 9) ms"}, {"measurement": "V peak", "value": "−30.6 ± 1.5 (n = 9) mV"}, {"measurement": "Peak current, % of control value", "setting": "doubling the amount of γ4 DNA transfected", "value": "128%±19%"}]}
{"molecule": "γ6L: rat calcium channel γ6 subunit, long isoform (AF361343), SEQ ID NO:48 (protein, listed as Rattus norvegicus) MMWSNFFMQEEDRRRTAVGRRRAQEQQNLGLTPEREGKIKLGLLVAIVGATLAVLAVGTEFWVELNTYKTNGSAVCEAAHLGLWKVCIKRLWQADVPAGRETCGPAELPGEANCTYFKFFTTGENAHIFQRTTKKEVNLAAAVIAVLGLTAMALGCLCVIMVLSKGAEFLLRLGAVCFGLSGLLLFVSLEVFRHSVRALLQGVNPETPPAPRLAYEYSWSLGCGVGAGLILLLGGVCFLLLTLPSWPWRSLCPKRGGPTA", "values": [{"measurement": "Effect on current kinetics or voltage dependency", "value": "did not alter current kinetics or voltage dependency"}, {"measurement": "Peak current density, % of control value", "value": "51%±17%"}, {"measurement": "Activation V 0.5", "value": "−36.3 ± 6.2 (n = 4) mV"}, {"measurement": "Activation k", "value": "12.7 ± 1.5 (n = 4)"}, {"measurement": "Deactivation tau @ −100 mV, Fast", "value": "1.54 ± 0.48 (n = 4) ms"}, {"measurement": "Inactivation Tau @ −20 mV", "value": "18.6 ± 1.1 (n = 6) ms"}, {"measurement": "Inactivation V 0.5", "value": "−78.5 ± 2.6 (n = 6) mV"}, {"measurement": "Inactivation k", "value": "5.4 ± 0.3 (n = 6)"}, {"measurement": "Time to peak @ −20 mV", "value": "6.0 ± 0.8 (n = 5) ms"}, {"measurement": "V peak", "value": "−31.1 ± 3.1 (n = 9) mV"}, {"measurement": "Decrease in Cav3.1 current density", "setting": "co-expression with Cav3.1 in HEK-293 cells", "value": 49, "unit": "%"}]}
